Source: patent publication US20210196834A1

Target: human SEZ6-His (soluble hSEZ6-his antigen) (human) (UniProt Q53EL9)
Assay: SPR, Biacore T200, human SEZ6-His captured on anti-His chip, Fab as analyte

Chain of UniProt Q53EL9 (Q53EL9 20-925): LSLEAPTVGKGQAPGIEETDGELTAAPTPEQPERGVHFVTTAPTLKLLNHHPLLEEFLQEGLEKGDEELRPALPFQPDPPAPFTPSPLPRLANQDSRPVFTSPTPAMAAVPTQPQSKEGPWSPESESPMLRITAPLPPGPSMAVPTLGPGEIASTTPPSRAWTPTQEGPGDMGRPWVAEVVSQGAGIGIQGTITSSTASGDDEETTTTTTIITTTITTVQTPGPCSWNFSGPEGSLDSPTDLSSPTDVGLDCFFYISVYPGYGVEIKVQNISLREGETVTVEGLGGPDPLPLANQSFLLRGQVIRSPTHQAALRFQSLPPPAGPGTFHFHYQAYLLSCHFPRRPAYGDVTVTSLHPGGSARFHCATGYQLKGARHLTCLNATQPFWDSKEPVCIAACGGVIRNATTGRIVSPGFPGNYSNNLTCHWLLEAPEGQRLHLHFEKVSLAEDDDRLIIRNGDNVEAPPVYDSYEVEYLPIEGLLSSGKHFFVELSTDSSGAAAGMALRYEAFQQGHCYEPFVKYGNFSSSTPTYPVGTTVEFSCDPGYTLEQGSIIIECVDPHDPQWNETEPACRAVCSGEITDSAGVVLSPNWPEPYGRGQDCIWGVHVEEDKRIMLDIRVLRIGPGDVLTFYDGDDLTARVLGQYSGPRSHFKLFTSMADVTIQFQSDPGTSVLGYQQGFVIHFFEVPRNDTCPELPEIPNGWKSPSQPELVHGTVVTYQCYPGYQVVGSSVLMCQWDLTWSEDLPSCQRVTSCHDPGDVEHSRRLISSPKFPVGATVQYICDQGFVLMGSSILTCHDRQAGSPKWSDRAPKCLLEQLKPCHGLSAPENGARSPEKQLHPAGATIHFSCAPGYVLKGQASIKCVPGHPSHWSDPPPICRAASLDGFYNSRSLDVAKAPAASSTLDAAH

B1: MutA (S60N) Fab (Fab construct of the hSEZ6-1.ss1 antibody with the S60N mutation) (Fab, V domains shown)
VH: EVQLVQSGAEVKKPGESLKISCKGSGYSFTSSWINWVRQMPGKGLEWMGRIYPGEGDTNYNGNFEGQVTISADKSISTAYLQWSSLKASDTAMYYCTRGLVMDYWGQGTLVTVSS
VL: EIVLTQSPATLSLSPGERATLSCRASQSVDYNGISYMHWYQQKPGQAPRLLIYAASNVQSGIPARFSGSGSGTDFTLTISSLEPEDFAVYYCQQSIEDPPTFGGGTKVEIK
Question: Which results are given for B1?
Answer: Kd: 4.8 nM; koff: 0.006 s⁻¹; kon: 1.3e+06 M⁻¹ s⁻¹
